Laboratory results from patent US7479478B2, “Human parathyroid hormone modifications, preparation and use” (The General Hospital Corporation, priority 1998, dated 2009).
No end group written: not given here.

What was measured:
Format in all cases: cell-based
human PTH-1 receptors [1] = target: T1, human PTH-1 receptors (Homo sapiens, UniProt Q03431); assay: PLC activation (IP3 formation) in HKRK B7 cells; conditions: HKRK B7 cells; up to 1000 nM or 10 μM
T1 construct: expressed in transfected cells
T1 sequence (Q03431 27-593): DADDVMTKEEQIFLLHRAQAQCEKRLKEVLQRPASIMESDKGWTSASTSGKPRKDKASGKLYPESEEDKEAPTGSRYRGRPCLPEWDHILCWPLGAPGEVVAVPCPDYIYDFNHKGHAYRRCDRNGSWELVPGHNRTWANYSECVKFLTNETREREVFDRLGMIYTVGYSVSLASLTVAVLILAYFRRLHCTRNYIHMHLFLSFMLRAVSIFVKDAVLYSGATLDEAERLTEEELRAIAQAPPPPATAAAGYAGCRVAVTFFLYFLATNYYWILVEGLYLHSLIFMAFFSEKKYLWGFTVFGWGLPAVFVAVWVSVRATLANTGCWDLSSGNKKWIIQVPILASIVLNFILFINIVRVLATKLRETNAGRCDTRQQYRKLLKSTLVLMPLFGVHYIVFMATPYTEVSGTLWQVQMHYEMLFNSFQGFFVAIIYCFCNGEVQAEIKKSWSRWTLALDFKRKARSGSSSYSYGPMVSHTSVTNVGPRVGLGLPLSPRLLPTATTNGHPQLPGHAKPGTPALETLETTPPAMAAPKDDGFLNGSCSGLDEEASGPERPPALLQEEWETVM
Protocol: (§1) HKRK B7 or EW5 cells (32), subclones of LLC-PKI renal epithelial cells that stably express human or rat PTH-1 receptors (950,000 and 320,000 receptors/cell, respectively), were maintained under 5% CO2 in air in Dulbecco's modified essential medium containing 7% fetal bovine serum (FBS) and 1% penicillin/streptomycin (GIBCO-BRL, Grand Island, N.Y.). HEK-293 and COS-7 cells were cultured similarly, except that 10% FBS was used in the medium. Cells were seeded into 24-well plates two days before assay at a density of 2-2.5×10^5 cells/well (HKRK B7 or EW 5 cells) or 6×10^5 cells/well (in 6-well plates) (HEK-293 cells). In experiments involving HEK-293 cells, DNA transfections were performed 24 hr after plating and inositol radiolabel was added 24 hr thereafter (see below). COS-7 cell transfections were performed as previously described (Gardella, T. J., et al., Endocrinology 132(5):2024-2030 (1993))
PLC was activated by PTH agonists in the presence of 30 mM LiCl at 37° C. for 30 min after 16 hr of labeling with [^3H]myo-inositol (3 uCi/ml) in serum-free medium containing 0.1% bovine serum albumin. The reactions were stopped by rapid aspiration and addition of cold 5% TCA. Water-soluble radiolabeled inositol trisphosphate (IP3) was isolated after ether extraction by ion-exchange chromatography (Guo, J., et al., Endocrinology 136(9):3884-3891 (1995)). In experiments involving HEK 293 cells, cells previously transfected with human PTHR cDNA (in the pcDNA1 expression vector HKRK) using Lipofectamine (Gibco BRL) were labeled with [^3H]myo-inositol and assayed as described above, except that total water-soluble [^3H]inositol polyphosphates were collected as a single fraction from the ion-exchange columns.

rat PTH-1 receptors = target: T2, rat PTH-1 receptors (Rattus norvegicus, UniProt P25961); assay: PLC activation in COS-7 cells expressing rat PTH-1 receptors; conditions: up to 1000 nM
T2 construct: expressed in transfected cells
T2 sequence (P25961 27-591): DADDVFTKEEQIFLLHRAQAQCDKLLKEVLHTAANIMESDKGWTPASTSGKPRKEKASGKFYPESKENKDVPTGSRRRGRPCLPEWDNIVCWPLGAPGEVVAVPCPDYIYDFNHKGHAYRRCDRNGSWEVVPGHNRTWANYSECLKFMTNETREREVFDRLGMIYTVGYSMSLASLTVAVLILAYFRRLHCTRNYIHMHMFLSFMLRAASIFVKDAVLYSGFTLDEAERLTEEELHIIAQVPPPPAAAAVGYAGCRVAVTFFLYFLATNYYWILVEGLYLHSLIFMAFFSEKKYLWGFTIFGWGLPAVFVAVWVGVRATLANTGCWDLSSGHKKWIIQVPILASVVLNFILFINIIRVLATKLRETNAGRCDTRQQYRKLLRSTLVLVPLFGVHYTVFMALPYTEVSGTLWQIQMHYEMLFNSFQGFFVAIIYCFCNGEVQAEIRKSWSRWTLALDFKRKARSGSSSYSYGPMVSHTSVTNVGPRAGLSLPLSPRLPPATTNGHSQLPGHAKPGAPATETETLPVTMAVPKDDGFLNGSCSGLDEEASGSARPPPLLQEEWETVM
Protocol: as §1
(§2) PLC was activated by PTH agonists in the presence of 30 mM LiCl at 37° C. for 30 min after 16 hr of labeling with [^3H]myo-inositol (3 uCi/ml) in serum-free medium containing 0.1% bovine serum albumin. The reactions were stopped by rapid aspiration and addition of cold 5% TCA. Water-soluble radiolabeled inositol trisphosphate (IP3) was isolated after ether extraction by ion-exchange chromatography (Guo, J., et al., Endocrinology 136(9):3884-3891 (1995)). […]

human PTH-1 receptors [2] = target: T1, human PTH-1 receptors; assay: PLC activation in COS-7 cells expressing human PTH-1 receptors; conditions: up to 1000 nM
Protocol: as §1, §2

PLC activation (IP3 formation), result in words (human PTH-1 receptors [1]): did not activate PLC | PLC activation, result in words (rat PTH-1 receptors): did not activate PLC | PLC activation, result in words (human PTH-1 receptors [2]): did not activate PLC
Substance: Human PTH-(3-34): N-truncated human PTH peptide lacking Ser^1-Val^2 (SEIQLMHNLGKHLNSMERVEWLRKKLQDVHNF-NH2; UniProt P01270 34-65, looked up, fragment)
